“Also recorded” adds a separate entry of the source.

Test [1] has as its system Mouse dorsal root ganglion explants (E13.5). The experiment in a line: Dorsal root ganglion explant culture: neurite outgrowth and fasciculation. Format: cell-based. On the procedure:
E13.5 DRGs were dissected out from mice embryos in HBSS medium and seeded on glass coverslips coated with polylysine or with peptides linked to BSA. Explants were cultured in the presence or the absence of the peptides under soluble form (40 μM) in two ml of neurobasal medium (DMEM/Ham's F12, 3:1 (V/V), GIBCO, buffered with 20 mM Hepes), supplemented as described in Faivre-Sarrailh et al., J. Cell. Sci., 1999, 18, 3015-3027 and Chazal et al., J.Neurosci., 2000, 20, 1446-1457.
Fixed DRGs (Dorsal Root ganglia) explants and sections were incubated at 4° C. respectively 2 hr with an anti-neurofilament (SMI-31, dilution 1:800, STERNBERGER MONOCLONALS) and overnight with an anti-PSA antibody (dilution 1:200, Rougon et al, J. Cell. Biol., 1986, 103, 2429-2437). Revelation was performed by 1 hr incubation with the corresponding fluorescent-labeled secondary antibody (Goat anti-mouse IgM or IgG conjugated with texas red, IMMUNOTECH)
After 48 h in culture, explants were examining directly (SVZ) or after overnight fixation with a 4% paraformaldehyde solution in PBS and immunostaining (DRGs). Observation was done using 2, 5×, 5×, 10× and 32× objectives (Axiovert 35M, ZEISS). Images were collected with a video camera (Cool View, PHOTONIC SCIENCE) and analysed using image-processing software (Visiolab1000, BIOCOM). Mean migration distance (calculated on five different experiments, including at least five explants per condition) or mean length of the longest neurite (calculated on two different experiments, including at least eight explants per condition), was the distance in micrometers between the explant edge and the border of the cell migration front. Four measurements were performed for each explant. The significance of the differences between the control and the different experimental conditions was calculated by Student's t test.
Mouse dorsal root ganglion explants (E13.5) were cultured in the presence of p65 and p66 cyclic mimetic peptides, either in soluble form or coated on the microplates as BSA conjugates. Cells cultured in the absence of peptides or in the presence of reverse peptides (coated or in soluble form) were used as controls.

Another test has as its target BSA (Bos taurus, UniProt P02769). The experiment in a line: Peptide-BSA conjugate ELISA, control wells coated only with blocking solution (BSA). Format: binding. The note with it: biotinylated peptide-BSA conjugate, BSA-blocked wells, no mAb. The source says:
• mAb 735 and 30H12 • MaxiSorp™ plates (NUNC) for coating the antibody: ELISA plates • microtiter plates (NUNC) for peptide dilution: dilution plates • Biotinylated peptide-BSA conjugates prepared as above described • Extravidin alkaline phosphatase-avidin conjugate (SIGMA E2636) • p-nitrophenyl-phosphatase alkaline substrate (SIGMA 104-105) 2.1.2) Buffers • PBS pH 7.4 • Blocking solution: 0.5% BSA in PBS • TBS • TBST: TBS containing 0.05% Tween 20 • Extravidin alkaline phosphatase-avidin conjugate solution: 1/5000 in TBST • Alkaline phosphatase substrate solution; 1 tablet in 5 ml 50 mM NaHCO3, 1 mM MgCl2 solution, pH 9.6. • mixed competitor solution: 1 mM colominic acid with a peptide-BSA conjugate gradient in TBST 2.1.3) Method
Maxisorp™ plate wells were coated with 100 μl mAb solution (25 μg/ml) for 2 h at room temperature. The control wells of the ELISA plates were only coated with the blocking solution. In parallel, the peptide-BSA conjugate dilution plates were blocked with 200 μl blocking solution for 2 h. The antibody coated wells and the control wells were blocked with 200 μl blocking solution for 1 h. In parallel the peptide-BSA conjugate dilution plates were washed 6 times with TBST and 120 μl TBST was added to the wells. An appropriate volume of peptide-BSA conjugate solution was added to the first well and the volume adjusted to 140 μl with TBST. The peptide-BSA conjugate in well one was diluted in the ratio 1/7 by taking 20 μl out of the first well and transferring into the second also to achieve the total volume of 140 μl. This was repeated for the remaining wells. The peptide-BSA conjugate dilutions for the control wells were done the same way. The blocked ELISA plates were washed 6 times with TBST and the peptide-BSA conjugate dilutions or 100 μl of the mixed competitor solution was added to the wells. After incubation for 1 h, the wells were washed 10 times with TBST and 100 μl of the alkaline phosphatase substrate solution was added to the wells. The plates were read out after 10 to 60 min using a microplate reader at 405 nm.
The specificity of peptide p21 (SEQ ID NO: 1) was investigated in a competition ELISA using biotinylated p21-BSA conjugate and a randomized variant of p21 (p22) conjugate as a control. The results presented in Tables X and XI are expressed as percentage of binding by comparison with peptide p21 at the highest concentration (9.45 10^-5 M) which corresponds to 100% binding.
A general note: An ELISA detects its analyte on a solid surface through an enzyme-linked reagent.

Setting [2] is: peptide in coated form (BSA conjugate).
Setting [3] is: peptide in soluble form (40 μM), versus controls.

BSA, sequence (P02769 25-607): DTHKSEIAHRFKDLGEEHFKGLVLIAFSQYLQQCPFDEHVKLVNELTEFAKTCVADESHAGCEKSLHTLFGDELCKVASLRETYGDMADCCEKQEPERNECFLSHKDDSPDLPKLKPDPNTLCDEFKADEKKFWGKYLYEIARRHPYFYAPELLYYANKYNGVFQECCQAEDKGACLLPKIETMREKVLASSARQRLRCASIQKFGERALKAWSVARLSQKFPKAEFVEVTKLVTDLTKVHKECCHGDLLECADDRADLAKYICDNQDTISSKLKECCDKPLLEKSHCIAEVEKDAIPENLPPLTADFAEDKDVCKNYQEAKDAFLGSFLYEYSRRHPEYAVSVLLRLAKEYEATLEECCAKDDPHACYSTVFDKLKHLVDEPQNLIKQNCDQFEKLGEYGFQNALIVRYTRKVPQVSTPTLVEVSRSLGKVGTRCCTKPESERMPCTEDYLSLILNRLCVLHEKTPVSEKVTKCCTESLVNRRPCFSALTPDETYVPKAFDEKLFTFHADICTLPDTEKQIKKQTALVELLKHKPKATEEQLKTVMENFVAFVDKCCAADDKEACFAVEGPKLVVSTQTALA

With CSSVTAWTTGCG [p65], in test [1] (setting [2]), the Fasciculation entry is recorded as “opposite effect on fasciculation” and the Neurite outgrowth result was “no effect on neurite outgrowth; also recorded: no significant increase”. Moreover, in test [1] (setting [3]), the Axonal growth entry was “significant increase in axonal growth” and the “Fasciculation of axon bundles” value is recorded as “clear defasciculation of axon bundles”. For the same sequence, in test [1] (peptide in soluble form, mean length of the longest neurite), the “Increase of neurite outgrowth compared to the controls” value is on record as 34%.

Take DSPLVPFIDFHP [p21]: the “Binding of peptide to BSA control wells (percentage of binding)” value in the test with BSA (peptide 1.62 10^−9 M) was found to be 0 ± 0%; in the test with BSA (peptide 1.67 10^−5 M) it was 1 ± 0%; with BSA (peptide 2.86 10^−9 M) it was 0 ± 0%; with BSA (peptide 2.94 10^−6 M), 0 ± 0%; with BSA (peptide 5.04 10^−10 M) it was 0 ± 0%; with BSA (peptide 5.20 10^−7 M), 0 ± 0%. For the same sequence, the “Binding of peptide to BSA control wells (percentage of binding)” value in the test with BSA (peptide 8.89 10^−11 M) turned out to be 0 ± 0%; with BSA (peptide 9.27 10^−8 M), 0 ± 0%; with BSA (peptide 9.45 10^−5 M), 3 ± 1%.

Values taken from US7417025B2, “Use of poly-α2,8-sialic acid mimetic peptides to modulate NCAM functions” (Centre National de la Recherche Scientifique, priority 2002, dated 2008).
